According to patent CN113861292A (BIO THERA SOLUTIONS LTD, dated 2021):

What was measured:
人CD40 [1] = molecular target: T1, 人CD40 (human, UniProt P25942 21-277); assay: flow cytometry (MFI) on HT1080-hCD40 cells
T1 construct: whole, on cells; also called hCD40; CD40 on Daudi cells

mCD40-his(小鼠CD40) = molecular target: T2, mCD40-his(小鼠CD40) (小鼠 (mouse), UniProt P27512 24-193, limits assumed); assay: ELISA, 2 μg/ml mCD40-his coated, HRP second antibody
T2 construct: Bought His-tagged protein; also called 小鼠的CD40
T2 sequence (looked up): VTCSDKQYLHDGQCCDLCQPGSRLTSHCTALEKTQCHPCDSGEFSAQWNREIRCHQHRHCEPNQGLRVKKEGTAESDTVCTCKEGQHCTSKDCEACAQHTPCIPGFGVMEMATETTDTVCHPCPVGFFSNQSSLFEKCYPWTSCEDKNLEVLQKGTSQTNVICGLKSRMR

人CD40 [2] = molecular target: T1, 人CD40; assay: flow cytometry (MFI) on Daudi cells expressing CD40

T1 sequence (P25942 21-277): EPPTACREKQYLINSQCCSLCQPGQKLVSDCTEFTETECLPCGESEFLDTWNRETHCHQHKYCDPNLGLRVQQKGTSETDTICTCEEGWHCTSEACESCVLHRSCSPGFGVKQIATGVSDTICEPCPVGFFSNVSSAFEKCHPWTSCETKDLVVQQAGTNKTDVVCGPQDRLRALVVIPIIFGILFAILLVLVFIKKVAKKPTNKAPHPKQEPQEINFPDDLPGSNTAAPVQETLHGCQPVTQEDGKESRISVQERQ

B1: 抗体25 (antibody, human IgG1, kappa, V domains shown)
VH: EVQLVESGGGLVQPGGSLRLSCAASGFSFGTYAMSWVRQAPGKGLEWVSGIDSGTGNPFYADSVKGRFTISRDNSKNTLYLQMNSLRAEDTAVYYCARALYYTGFYRPLDYWGQGTLVTVSS
VL: DIQMTQSPSSLSASVGDRVTITCRASQGISSYLAWYQQKPGKAPKLLIYAASSLQSGVPSRFSGSGSGTDFTLTISSLQPEDFATYYCQQHYTTPPTFGQGTKVEIKR
notes: also called antibody 25; 抗CD40抗体
- EC50 (人CD40 [1]): 0.593 µg/mL
- binding result (mCD40-his(小鼠CD40)): no binding
- EC50 (人CD40 [2]): 0.414 µg/mL

B2: APX005 (antibody, V domains shown)
VH: QVQLVESGGGVVQPGRSLRLSCAASGFSFSSTYVCWVRQAPGKGLEWIACIYTGDGTNYSASWAKGRFTISKDSSKNTVYLQMNSLRAEDTAVYFCARPDITYGFAINFWGPGTLVTVSS
VL: DIQMTQSPSSLSASVGDRVTIKCQASQSISSRLAWYQQKPGKPPKLLIYRASTLASGVPSRFSGSGSGTDFTLTISSLQPEDVATYYCQCTGYGISWPIGGGTKVEIK
- EC50 (人CD40 [1]): 0.995 µg/mL
- EC50 (人CD40 [2]): 0.86 µg/mL
